± gives the standard error. For some of these results: This sample holds only a part of the variants without activity.
B1: glmS ribozyme (parent)
chain: AUAAAAGCGCCAGAACUACAGAAAUGUAGUUGACGAGGAGGAGGUUUAUCGAAUUUUCGGCGGAUGCCUCCAAA

Columns and labels:
Details in all cases: with glucosamine-6-phosphate
glucosamine-6-phosphate [1] = variants of: B1; experiment: kcat; higher = faster cleavage; RNA array
Summary of the method: (§1)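 The measurements used barcoded ribozyme variants on sequenced MiSeq chips, transcribed in situ by E. coli RNA polymerase and tracked at 37 °C with a hybridised Cy3 probe. Glucosamine-6-phosphate, 40 μM to 10 mM in HEPES/KCl/Mg(OAc)2 buffer, was flowed in while tiles were imaged over ~14 h. Baseline-normalised signals, also normalised to non-cleaving reference variants, gave per-tile medians that were fit to one- or two-exponential decays for kobs. kcat and KM resulted from weighted Michaelis–Menten fits across concentrations.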

glucosamine-6-phosphate [2] = variants of: B1; experiment: self-cleavage kobs at 640 uM GlcN6P; higher = faster cleavage; RNA array
Summary of the method: as §1

glucosamine-6-phosphate [3] = variants of: B1; experiment: self-cleavage kobs at 2500 uM GlcN6P; higher = faster cleavage; RNA array
Summary of the method: as §1

glucosamine-6-phosphate [4] = variants of: B1; experiment: self-cleavage kobs at 10000 uM GlcN6P; higher = faster cleavage; RNA array
Summary of the method: as §1

glucosamine-6-phosphate [5] = variants of: B1; experiment: self-cleavage kobs at 160 uM GlcN6P; higher = faster cleavage; RNA array
Summary of the method: as §1

glucosamine-6-phosphate [6] = variants of: B1; experiment: KM; higher = weaker cofactor use; RNA array
Summary of the method: as §1

glucosamine-6-phosphate [7] = variants of: B1; experiment: self-cleavage kobs at 40 uM GlcN6P; higher = faster cleavage; RNA array
Summary of the method: as §1

Row | Variant | kcat (glucosamine-6-phosphate [1]) [s⁻¹] | self-cleavage kobs at 640 uM GlcN6P (glucosamine-6-phosphate [2]) [s⁻¹] | self-cleavage kobs at 2500 uM GlcN6P (glucosamine-6-phosphate [3]) [s⁻¹] | self-cleavage kobs at 10000 uM GlcN6P (glucosamine-6-phosphate [4]) [s⁻¹] | self-cleavage kobs at 160 uM GlcN6P (glucosamine-6-phosphate [5]) [s⁻¹] | KM (glucosamine-6-phosphate [6]) [µM] | self-cleavage kobs at 40 uM GlcN6P (glucosamine-6-phosphate [7]) [s⁻¹]
1 | A15U U65C | 5.03e-05 ± 3.5e-06 | 4.42e-05 ± 1.2e-05 | 4.8e-05 ± 8.3e-06 | 4.61e-05 ± 1.5e-05 | – | – | –
2 | G37A U69G | 2.13e-05 ± 3.7e-06 | – | – | – | – | – | –
3 | A53G C68G | 0.000144 ± 2.6e-05 | 8.52e-05 ± 9.4e-06 | 0.00014 ± 1.5e-05 | – | 5.82e-05 ± 1e-05 | – | –
4 | G29A G37C | 1.28e-05 ± 1.4e-06 | – | – | – | – | – | –
5 | C10A G38C | < 1e-05 | < 1e-05 | – | – | < 1e-05 | – | –
6 | C16U U45G | 0.00669 ± 0.00062 | 0.00156 ± 0.00026 | 0.00321 ± 0.00074 | 0.00593 ± 0.001 | 0.000468 ± 0.00016 | 2070 ± 280 | 0.000135 ± 2.4e-05
7 | G40C U55G | 0.000581 ± 0.00017 | 0.000531 ± 0.0001 | 0.000712 ± 0.00015 | 0.00045 ± 8.6e-05 | 0.000102 ± 2.2e-05 | – | –
8 | C67U C68A | 4.58e-05 ± 9.2e-06 | 4.09e-05 ± 9.8e-06 | 5.66e-05 ± 7.5e-06 | 2.96e-05 ± 8.7e-06 | – | – | –
9 | A12C U30G | 0.00614 ± 0.0015 | 0.000671 ± 0.00015 | 0.00164 ± 0.00034 | 0.00422 ± 0.00051 | 0.000166 ± 3.1e-05 | 5240 ± 1800 | 6.93e-05 ± 1.4e-05
10 | U30C A36C | < 1e-05 | – | < 1e-05 | < 1e-05 | – | – | < 1e-05
11 | G60A | 2.13e-05 ± 1.7e-06 | < 1e-05 | 2.19e-05 ± 2.6e-06 | 1.98e-05 ± 1.2e-06 | – | – | < 1e-05
12 | G29A C68G | 3.6e-05 ± 1e-05 | 4.89e-05 ± 9.9e-06 | 3.97e-05 ± 1.1e-05 | – | 2.59e-05 ± 1.2e-05 | – | –
13 | A15G A39C | 0.0119 ± 0.0054 | 0.0011 ± 0.00014 | 0.00446 ± 0.00072 | 0.00811 ± 0.00088 | 0.000242 ± 6.6e-05 | – | 0.000149 ± 1.5e-05
14 | A39G U69G | 0.000101 ± 1.5e-05 | 7.75e-05 ± 1.3e-05 | 0.000143 ± 1.7e-05 | 9.32e-05 ± 1e-05 | 0.000114 ± 3.2e-05 | – | 4.07e-05 ± 1.3e-05
15 | A12G G59C | 6.79e-05 ± 1.4e-05 | – | 7.69e-05 ± 2.4e-05 | 5.86e-05 ± 1.4e-05 | – | – | < 1e-05
16 | C16U G59A | 6.33e-05 ± 4e-06 | – | 4.86e-05 ± 1.2e-05 | 5.59e-05 ± 6.3e-06 | – | 1180 ± 390 | –
17 | C11U C70U | 0.000987 ± 0.00026 | 0.000397 ± 3.7e-05 | 0.000735 ± 9.1e-05 | 0.00165 ± 0.00027 | 0.000165 ± 2.1e-05 | 772 ± 320 | 5.88e-05 ± 6.9e-06
18 | A39C G44U | 4.89e-05 ± 4.8e-06 | – | – | 3.48e-05 ± 8.8e-06 | – | 4080 ± 1200 | –
19 | G38U G59C U69G | 4.16e-05 ± 1.3e-05 | – | – | – | – | – | –

Row | Variant | kcat (glucosamine-6-phosphate [1]) [s⁻¹] | self-cleavage kobs at 640 uM GlcN6P (glucosamine-6-phosphate [2]) [s⁻¹] | self-cleavage kobs at 2500 uM GlcN6P (glucosamine-6-phosphate [3]) [s⁻¹] | self-cleavage kobs at 10000 uM GlcN6P (glucosamine-6-phosphate [4]) [s⁻¹] | self-cleavage kobs at 160 uM GlcN6P (glucosamine-6-phosphate [5]) [s⁻¹] | KM (glucosamine-6-phosphate [6]) [µM] | self-cleavage kobs at 40 uM GlcN6P (glucosamine-6-phosphate [7]) [s⁻¹]
20 | C11U U45C | 9.44e-05 ± 1.8e-05 | – | 6.5e-05 ± 1.3e-05 | 7.59e-05 ± 1e-05 | – | – | –
21 | C50U C70A | 2.87e-05 ± 6.9e-06 | 3.61e-05 ± 1.4e-05 | 3.43e-05 ± 1.5e-05 | – | – | – | –
22 | G9A G37U C70G | 1.52e-05 ± 2.5e-06 | – | < 1e-05 | – | – | – | –
23 | A15C C58G | 0.000128 ± 2.1e-05 | 4.09e-05 ± 1.2e-05 | 5.08e-05 ± 1.8e-05 | 0.000111 ± 1.4e-05 | – | – | –
24 | U30A G66A | 0.0034 ± 0.00044 | 0.000751 ± 0.00018 | 0.00197 ± 0.00024 | 0.0029 ± 0.00037 | 0.00021 ± 5.2e-05 | 1870 ± 370 | 8.19e-05 ± 1e-05
25 | A33C C61A | < 1e-05 | – | – | < 1e-05 | – | – | –
26 | A64G C71A | 0.000799 ± 8.2e-05 | 0.000265 ± 3.8e-05 | 0.00059 ± 7.4e-05 | 0.000652 ± 7.6e-05 | 7.29e-05 ± 1.4e-05 | 1410 ± 280 | –
27 | A14U G29C U46G C70A | 2.85e-05 ± 1.1e-05 | – | – | – | – | – | –
28 | C16A A48C | < 1e-05 | – | – | – | – | – | < 1e-05
29 | U57A G63A | < 1e-05 | – | – | < 1e-05 | < 1e-05 | – | –
30 | G59U C68A | 2.28e-05 ± 4.9e-06 | – | – | – | – | – | –
31 | A48G A53U | 6.17e-05 ± 9.3e-06 | – | 4.65e-05 ± 1.4e-05 | 5.16e-05 ± 7.9e-06 | – | – | –
32 | G13A C71G | 5.85e-05 ± 4.1e-06 | 5.42e-05 ± 1.3e-05 | 5.71e-05 ± 9.7e-06 | 5.48e-05 ± 7e-06 | – | – | –
33 | A14C A36C | < 1e-05 | – | – | – | < 1e-05 | – | < 1e-05
34 | A6U U47A | 0.000155 ± 3.1e-06 | 3.88e-05 ± 9.8e-06 | 8.84e-05 ± 1.2e-05 | 0.000131 ± 1.3e-05 | – | 1890 ± 110 | –
35 | C58G G66C | 2.6e-05 ± 1.4e-06 | < 1e-05 | – | – | – | 2200 ± 540 | –
36 | A15G G40U | 0.00552 ± 0.00099 | 0.00181 ± 0.0002 | 0.00448 ± 0.00068 | 0.00473 ± 0.00045 | 0.000466 ± 6.2e-05 | 1330 ± 360 | 0.000202 ± 2.1e-05
37 | G41U U54C | 0.00115 ± 0.00032 | 0.000389 ± 0.0001 | 0.00118 ± 0.00025 | 0.00117 ± 0.00018 | 0.000197 ± 4.5e-05 | – | 0.000109 ± 1.9e-05

Reference: the supplement of paper PMC7125110
